What was measured:
[1] = from Kohn et al., cited from earlier work
[2] = test system: healthy male normal glycemic Wistar rats; experiment: Blood glucose-lowering effect of insulin analogues in rats; format: in vivo, rat; conditions: dose 9 nmol/kg s.c., n=8, blood glucose up to eight hours after injection
Experimental: In order to test the insulin derivatives of the invention for their biopharmacological and physicochemical properties, a solution of the compounds was prepared as follows: the insulin derivative of the invention was dissolved with a target concentration of 240±5 μM in 1 mM hydrochloric acid with 80 μg/mL zinc (as zinc chloride). For this purpose, initially an amount of the freeze-dried material which is about 30% higher than required on the basis of the molecular weight and the desired concentration was weighed out. The concentration present was then determined by analytical HPLC and the solution was subsequently made up to the volume necessary to achieve the target concentration with 5 mM hydrochloric acid with 80 μg/mL zinc. If necessary, the pH was readjusted to 3.5±0.1. After the final analysis by HPLC to verify the target concentration of 240±5 μM, the finished solution was transferred by means of a syringe with a 0.2 μm filter attachment into a sterile vial which was closed with a septum and a crimped cap. […] Blood samples are taken from the animals immediately before the injection of the insulin analogue and at regular intervals up to eight hours after the injection, and the blood glucose content therein is determined.

Substance	calculated pl ([1]; calculated)	experimentally determined pl ([1]; experimentally determined)	hypoglycemic effect [2]	isoelectric point (pl) [1]
Arg (A0), Gly (A21), Arg (B31), Arg (B32) human insulin [Compound 18]	7.58	7.3	–	–
human insulin	–	–	hypoglycemic effect	5.6
